Where a chain is given by its changes, count along the chain named.
T1: Cellular CD73 on MDA-MB-231 human breast cancer cells (human, UniProt P21589 27-549)
T1 construct: whole, on cells; Endogenous CD73 on MDA-MB-231 cells; also called 5'-nucleotidase; ecto-5'-nucleotidase
T1 sequence (looked up): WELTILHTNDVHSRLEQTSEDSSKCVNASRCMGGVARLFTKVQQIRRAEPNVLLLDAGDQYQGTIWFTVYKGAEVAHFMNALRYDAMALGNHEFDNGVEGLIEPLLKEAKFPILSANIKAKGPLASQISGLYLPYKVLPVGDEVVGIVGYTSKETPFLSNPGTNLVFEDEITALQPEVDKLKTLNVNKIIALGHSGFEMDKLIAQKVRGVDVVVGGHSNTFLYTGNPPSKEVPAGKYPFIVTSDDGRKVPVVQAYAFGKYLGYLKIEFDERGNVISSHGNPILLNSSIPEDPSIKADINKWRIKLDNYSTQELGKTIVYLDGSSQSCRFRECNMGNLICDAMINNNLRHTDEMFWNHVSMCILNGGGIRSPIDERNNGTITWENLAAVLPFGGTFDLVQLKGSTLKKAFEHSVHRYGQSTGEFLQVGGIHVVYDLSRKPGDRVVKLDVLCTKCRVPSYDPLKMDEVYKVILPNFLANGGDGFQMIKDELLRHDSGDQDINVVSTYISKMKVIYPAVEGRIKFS

B1: CPX-008 (antibody, V domains shown)
VH: QVQLVQSGAEVEKPGASVKVSCKASGYTFTSYWITWVRQAPGQGLEWMGDIYPGSGNTNYNEKFKTRVTITADKSTSTAYMELSSLRSEDTAVYYCAKEGGLTTEDYALDYWGQGTLVTV
VL: EIVLTQSPATLSLSPGERATLSCRASKQVSTSGYSYMHWYQQKPGQAPRLLIYLASNLESGIPPRFSGSGYGTDFTLTINNIESEDAAYYFCQHSRELPFTFGQGTKVEIK
notes: also called aglycosylated antibody
B2: CPX-012 (antibody, V domains shown)
VH: B1 VH
VL: AIQLTQSPSSLSASVGDRVTITCRASKQVSTSGYSYMHWYQQKPGQAPRLLIYLASNLESGVPSRFSGSGSGTDFTFTISSLEAEDAATYYCQHSRELPFTFGQGTKVEIK
B3: CPX-014 (antibody, V domains shown)
VH: B1 VH
VL: B1 VL with Q28D
notes: D at Kabat 27A of CDR L1, made in the CPX-006 light chain
B4: CPX-009 (antibody, V domains shown)
VH: B1 VH
VL: B1 VL with Q28A
notes: A at Kabat 27A of CDR L1, made in the CPX-006 light chain
B5: CPX-011 (antibody, V domains shown)
VH: B1 VH
VL: B1 VL with Q28N, S30A
notes: A at Kabat 27C of CDR L1, made in the CPX-006 light chain
B6: CPX-006 (glycosylated) (antibody, human IgG1, kappa, N297Q, V domains shown)
VH: QVQLVQSGAEVEKPGASVKVSCKASGYTFTSYWITWVRQAPGQGLEWMGDIYPGSGNTNYNEKFKTRVTITADKSTSTAYMELSSLRSEDTAVYYCAKEGGLTTEDYALDYWGQGTLVTVSS
VL: EIVLTQSPATLSLSPGERATLSCRASKNVSTSGYSYMHWYQQKPGQAPRLLIYLASNLESGIPPRFSGSGYGTDFTLTINNIESEDAAYYFCQHSRELPFTFGQGTKVEIKR
modifications: N-linked glycosylation on CDR L1 (NXS motif at Kabat 27A-27C)
notes: Humanized anti-CD73 antibody with the CDRs of mouse 1E9; also called BAP094-hum07; glycosylated antibody

These binders were tested against T1, Cellular CD73 on MDA-MB-231 human … (assay: flow cytometry on MDA-MB-231 cells, PE anti-human secondary).

Binding result, binds:
B1
B2
B3
B4
B5
B6
